Laboratory results: the supplement of paper PMC12855868

B1: library; numbered along this chain (parent)
chain: MAAAGGARLLRAASAVLGGPAGRWLHHAGSRAGSSGLLRNRGPGGSAEASRSLSVSARARSSSEDKITVHFINRDGETLTTKGKVGDSLLDVVVENNLDIDGFGACEGTLACSTCHLIFEDHIYEKLDAITDEENDMLDLAYGLTDRSRLGCQICLTKSMDNMTVRVPETVADARQSIDVGKTS

Variants of: B1
Assay: scaled log2 fold change in cell abundance, elesclomol vs control (0 = silent mean, 1 = nonsense mean) (scaled log2 ratio); higher = higher viability under elesclomol (loss of FDX1 cuproptosis function)
Conditions: glucose 10 mM
[1] = with ABC1 FDX1 KO, elesclomol 5 nM, 14 days
[2] = with HEK293T FDX1 KO, elesclomol 40 nM, 11 days
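Note: variant abundance is its share of total variant reads in each endpoint sample, from next-generation sequencing of the integrated ORF PCR-amplified out of genomic DNA.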

Row | Variant | scaled log2 fold change [1] | scaled log2 fold change [2]
1 | MAAAGGARLLRAASAVLGGPAGRWLHHAGSRAGSSGLLRNRGPGGSAEASRSLSVSARARSSSEDKITVHFINRDGETLTTKGKVGDSLLDVVVENNLDIDGFGACEWTLACSTCHLIFEDHIYEKLDAITDEENDMLDLAYGLTDRSRLGCQICLTKSMDNMTVRVPETVADARQSIDVGKTS [G108W] | 0.949 | 0.989
2 | MAAAGGARLLRAASAVLGGPAGRWLHHAGSRAGSSGLLRNRGPGGSAEASRSLSVSARARSSSEDKITVHFINRDGETLTTKGKVGDSLLDVVVENNLDIDGFGACERTLACSTCHLIFEDHIYEKLDAITDEENDMLDLAYGLTDRSRLGCQICLTKSMDNMTVRVPETVADARQSIDVGKTS [G108R] | 0.794 | -0.104
3 | MAAAGGARLLRAASAVLGGPAGRWLHHAGSRAGSSGLLRNRGPGGSAEASRSLSVSARARSSSEDKITVHFINRDGETLTTKGKVGDSLLDVVVENNLDIDGFGACEQTLACSTCHLIFEDHIYEKLDAITDEENDMLDLAYGLTDRSRLGCQICLTKSMDNMTVRVPETVADARQSIDVGKTS [G108Q] | 0.767 | 0.807
4 | MAAAGGARLLRAASAVLGGPAGRWLHHAGSRAGSSGLLRNRGPGGSAEASRSLSVSARARSSSEDKITVHFINRDGETLTTKGKVGDSLLDVVVENNLDIDGFGACENTLACSTCHLIFEDHIYEKLDAITDEENDMLDLAYGLTDRSRLGCQICLTKSMDNMTVRVPETVADARQSIDVGKTS [G108N] | 0.805 | 0.721
5 | MAAAGGARLLRAASAVLGGPAGRWLHHAGSRAGSSGLLRNRGPGGSAEASRSLSVSARARSSSEDKITVHFINRDGETLTTKGKVGDSLLDVVVENNLDIDGFGACESTLACSTCHLIFEDHIYEKLDAITDEENDMLDLAYGLTDRSRLGCQICLTKSMDNMTVRVPETVADARQSIDVGKTS [G108S] | 0.376 | 0.952
6 | MAAAGGARLLRAASAVLGGPAGRWLHHAGSRAGSSGLLRNRGPGGSAEASRSLSVSARARSSSEDKITVHFINRDGETLTTKGKVGDSLLDVVVENNLDIDGFGACETTLACSTCHLIFEDHIYEKLDAITDEENDMLDLAYGLTDRSRLGCQICLTKSMDNMTVRVPETVADARQSIDVGKTS [G108T] | 1.01 | 0.358
7 | MAAAGGARLLRAASAVLGGPAGRWLHHAGSRAGSSGLLRNRGPGGSAEASRSLSVSARARSSSEDKITVHFINRDGETLTTKGKVGDSLLDVVVENNLDIDGFGACEVTLACSTCHLIFEDHIYEKLDAITDEENDMLDLAYGLTDRSRLGCQICLTKSMDNMTVRVPETVADARQSIDVGKTS [G108V] | 1.07 | 1.34
8 | MAAAGGARLLRAASAVLGGPAGRWLHHAGSRAGSSGLLRNRGPGGSAEASRSLSVSARARSSSEDKITVHFINRDGETLTTKGKVGDSLLDVVVENNLDIDGFGACEPTLACSTCHLIFEDHIYEKLDAITDEENDMLDLAYGLTDRSRLGCQICLTKSMDNMTVRVPETVADARQSIDVGKTS [G108P] | 1.09 | 1.24
9 | MAAAGGARLLRAASAVLGGPAGRWLHHAGSRAGSSGLLRNRGPGGSAEASRSLSVSARARSSSEDKITVHFINRDGETLTTKGKVGDSLLDVVVENNLDIDGFGACEYTLACSTCHLIFEDHIYEKLDAITDEENDMLDLAYGLTDRSRLGCQICLTKSMDNMTVRVPETVADARQSIDVGKTS [G108Y] | 1 | 1.1
10 | MAAAGGARLLRAASAVLGGPAGRWLHHAGSRAGSSGLLRNRGPGGSAEASRSLSVSARARSSSEDKITVHFINRDGETLTTKGKVGDSLLDVVVENNLDIDGFGACEGHLACSTCHLIFEDHIYEKLDAITDEENDMLDLAYGLTDRSRLGCQICLTKSMDNMTVRVPETVADARQSIDVGKTS [T109H] | -0.34 | -0.84
11 | MAAAGGARLLRAASAVLGGPAGRWLHHAGSRAGSSGLLRNRGPGGSAEASRSLSVSARARSSSEDKITVHFINRDGETLTTKGKVGDSLLDVVVENNLDIDGFGACEGILACSTCHLIFEDHIYEKLDAITDEENDMLDLAYGLTDRSRLGCQICLTKSMDNMTVRVPETVADARQSIDVGKTS [T109I] | -0.689 | -0.157
12 | MAAAGGARLLRAASAVLGGPAGRWLHHAGSRAGSSGLLRNRGPGGSAEASRSLSVSARARSSSEDKITVHFINRDGETLTTKGKVGDSLLDVVVENNLDIDGFGACEGDLACSTCHLIFEDHIYEKLDAITDEENDMLDLAYGLTDRSRLGCQICLTKSMDNMTVRVPETVADARQSIDVGKTS [T109D] | -0.669 | 0.407
13 | MAAAGGARLLRAASAVLGGPAGRWLHHAGSRAGSSGLLRNRGPGGSAEASRSLSVSARARSSSEDKITVHFINRDGETLTTKGKVGDSLLDVVVENNLDIDGFGACEGALACSTCHLIFEDHIYEKLDAITDEENDMLDLAYGLTDRSRLGCQICLTKSMDNMTVRVPETVADARQSIDVGKTS [T109A] | -0.1 | 0.103
14 | MAAAGGARLLRAASAVLGGPAGRWLHHAGSRAGSSGLLRNRGPGGSAEASRSLSVSARARSSSEDKITVHFINRDGETLTTKGKVGDSLLDVVVENNLDIDGFGACEGCLACSTCHLIFEDHIYEKLDAITDEENDMLDLAYGLTDRSRLGCQICLTKSMDNMTVRVPETVADARQSIDVGKTS [T109C] | -0.244 | -0.121
15 | MAAAGGARLLRAASAVLGGPAGRWLHHAGSRAGSSGLLRNRGPGGSAEASRSLSVSARARSSSEDKITVHFINRDGETLTTKGKVGDSLLDVVVENNLDIDGFGACEGFLACSTCHLIFEDHIYEKLDAITDEENDMLDLAYGLTDRSRLGCQICLTKSMDNMTVRVPETVADARQSIDVGKTS [T109F] | -0.985 | -0.223
16 | MAAAGGARLLRAASAVLGGPAGRWLHHAGSRAGSSGLLRNRGPGGSAEASRSLSVSARARSSSEDKITVHFINRDGETLTTKGKVGDSLLDVVVENNLDIDGFGACEGELACSTCHLIFEDHIYEKLDAITDEENDMLDLAYGLTDRSRLGCQICLTKSMDNMTVRVPETVADARQSIDVGKTS [T109E] | -0.14 | 
17 | MAAAGGARLLRAASAVLGGPAGRWLHHAGSRAGSSGLLRNRGPGGSAEASRSLSVSARARSSSEDKITVHFINRDGETLTTKGKVGDSLLDVVVENNLDIDGFGACEGGLACSTCHLIFEDHIYEKLDAITDEENDMLDLAYGLTDRSRLGCQICLTKSMDNMTVRVPETVADARQSIDVGKTS [T109G] | 0.318 | 0.43
